Data set [1] has as its target PP1c (PP1cα), protein phosphatase 1 catalytic subunit. Kind of data set: PP1c pull-down from adenovirus-infected cardiomyocytes (I-1 + PKCα wt), I-1 Western blot, quantified. In general terms: In western blotting, separated proteins are transferred to a membrane and probed.
For data set [2] the target is unchanged. Kind of data set: PP1c pull-down from adenovirus-infected cardiomyocytes (I-1 + PKCα dn), I-1 Western blot, quantified.
The test system of data set [3] is recombinant Ser-67-Ala inhibitor-1 isolated from E. coli.
The test system of data set [4] is recombinant wildtype inhibitor-1 isolated from E. coli.

Chain of PP1c (PP1cα), protein phosphatase 1 catalytic subunit (P62138 2-330): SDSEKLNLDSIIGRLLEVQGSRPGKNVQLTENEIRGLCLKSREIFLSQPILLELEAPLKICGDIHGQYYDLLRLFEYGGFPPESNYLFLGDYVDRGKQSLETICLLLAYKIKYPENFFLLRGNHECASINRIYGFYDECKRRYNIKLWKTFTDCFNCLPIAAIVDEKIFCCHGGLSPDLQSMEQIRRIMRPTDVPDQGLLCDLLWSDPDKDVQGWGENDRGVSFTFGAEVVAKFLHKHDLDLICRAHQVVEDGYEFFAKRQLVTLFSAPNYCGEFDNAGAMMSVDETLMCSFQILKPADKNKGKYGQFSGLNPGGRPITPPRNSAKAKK

As to “Inhibitor-1 (I-1), expressed from adenovirus in neonatal rat cardiomyocytes”, the reduction of I-1 interaction with PP1c when wildtype PKCα is overexpressed in data set [1] turned out to be 50 % reduction. Also, the increase of I-1/PP1c complex formation when dominant negative PKCα is expressed in data set [2] is more than 70 % increase.

Regarding “protein kinase C isolated from rabbit heart muscle”, the “in vitro phosphorylation with 32P-ATP, relative to wildtype I-1” value in data set [3] is “approximately 50% less phosphorylation by PKC compared with equal amounts of wildtype protein”. Besides, the “in vitro phosphorylation with 32P-ATP, SDS-PAGE and quantification of radioactivity” value in data set [4] is recorded as “Wildtype I-1 protein was directly phosphorylated in vitro in a time-dependent manner at stoichiometric levels by PKC”.

These data come from patent US20050066381A1.
